# Test results from patent US20240317826.
# Assays:
# [1] = biological target: INI1 of 293 T producer cells (endogenous), Q12824
# [2] = biological target: SP38 stapled peptide
Protein,INI1 incorporation into HIV-1 virions (Western blot of concentrated virions) [1],INI1 incorporation into HIV-1 virions (Western analysis of concentrated virions) [2]
"HIV-1NL4-3 integrase (IN), wild type, in virus / GagPol (protein) FLDGIDKAQEEHEKYHSNWRAMASDFNLPPVVAKEIVASCDKCQLKGEAMHGQVDCSPGIWQLDCTHLEGKVILVAVHVASGYIEAEVIPAETGQETAYFLLKLAGRWPVKTVHTDNGSNFTSTTVKAACWWAGIKQEFGIPYNPQSQGVIESMNKELKKIIGQVRDQAEHLKTAVQMAVFIHNFKRKGGIGGYSAGERIVDIIATDIQTKELQKQITKIQNFRVYYRDSRDPVWKGPAKLLWKGEGAVVIQDNSDIKVVPRRKAKIIRDYGKQMAGDDCVASRQDED",wild type virus (FIG. 18c lane 2) ... incorporated INI1,INI1 was not incorporated into HIV-1 virions produced in the presence of SP38
"HIV-1NL4-3 integrase R228A, in virus (protein) FLDGIDKAQEEHEKYHSNWRAMASDFNLPPVVAKEIVASCDKCQLKGEAMHGQVDCSPGIWQLDCTHLEGKVILVAVHVASGYIEAEVIPAETGQETAYFLLKLAGRWPVKTVHTDNGSNFTSTTVKAACWWAGIKQEFGIPYNPQSQGVIESMNKELKKIIGQVRDQAEHLKTAVQMAVFIHNFKRKGGIGGYSAGERIVDIIATDIQTKELQKQITKIQNFRVYYADSRDPVWKGPAKLLWKGEGAVVIQDNSDIKVVPRRKAKIIRDYGKQMAGDDCVASRQDED",but not the W235E and R228A mutant virions incorporated INI1,–
"HIV-1NL4-3 integrase W235E, in virus (protein) FLDGIDKAQEEHEKYHSNWRAMASDFNLPPVVAKEIVASCDKCQLKGEAMHGQVDCSPGIWQLDCTHLEGKVILVAVHVASGYIEAEVIPAETGQETAYFLLKLAGRWPVKTVHTDNGSNFTSTTVKAACWWAGIKQEFGIPYNPQSQGVIESMNKELKKIIGQVRDQAEHLKTAVQMAVFIHNFKRKGGIGGYSAGERIVDIIATDIQTKELQKQITKIQNFRVYYRDSRDPVEKGPAKLLWKGEGAVVIQDNSDIKVVPRRKAKIIRDYGKQMAGDDCVASRQDED",but not the W235E and R228A mutant virions incorporated INI1,–
